Here are results for one molecule from doi:10.1101/755504 (bioRxiv, 2019).

For the assay, the target named is T1, His-D6PK (Arabidopsis thaliana, UniProt Q9FG74 1-498).
T1 sequence (looked up): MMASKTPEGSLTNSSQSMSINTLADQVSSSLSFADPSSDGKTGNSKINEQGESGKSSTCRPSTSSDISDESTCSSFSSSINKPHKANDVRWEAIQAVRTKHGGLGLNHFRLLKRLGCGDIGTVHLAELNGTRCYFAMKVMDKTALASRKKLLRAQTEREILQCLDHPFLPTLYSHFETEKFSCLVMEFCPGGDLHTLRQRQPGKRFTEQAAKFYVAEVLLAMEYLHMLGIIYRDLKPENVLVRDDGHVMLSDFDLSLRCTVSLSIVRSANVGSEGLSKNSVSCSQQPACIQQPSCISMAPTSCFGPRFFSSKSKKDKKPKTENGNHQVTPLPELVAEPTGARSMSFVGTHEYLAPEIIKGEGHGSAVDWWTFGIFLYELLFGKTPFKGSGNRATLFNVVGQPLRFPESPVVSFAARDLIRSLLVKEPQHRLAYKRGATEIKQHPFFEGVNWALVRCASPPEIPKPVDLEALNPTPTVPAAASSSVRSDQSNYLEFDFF
In words: pull-down.

B1: GST-PDK1.1 (enzyme, Arabidopsis thaliana, UniProt Q9XF67 1-491, looked up)
chain: MLAMEKEFDSKLVLQGNSSNGANVSRSKSFSFKAPQENFTSHDFEFGKIYGVGSYSKVVRAKKKETGTVYALKIMDKKFITKENKTAYVKLERIVLDQLEHPGIIKLYFTFQDTSSLYMALESCEGGELFDQITRKGRLSEDEARFYTAEVVDALEYIHSMGLIHRDIKPENLLLTSDGHIKIADFGSVKPMQDSQITVLPNAASDDKACTFVGTAAYVPPEVLNSSPATFGNDLWALGCTLYQMLSGTSPFKDASEWLIFQRIIARDIKFPNHFSEAARDLIDRLLDTEPSRRPGAGSEGYVALKRHPFFNGVDWKNLRSQTPPKLAPDPASQTASPERDDTHGSPWNLTHIGDSLATQNEGHSAPPTSSESSGSITRLASIDSFDSRWQQFLEPGESVLMISAVKKLQKITSKKVQLILTNKPKLIYVDPSKLVVKGNIIWSDNSNDLNVVVTSPSHFKICTPKKVLSFEDAKQRASVWKKAIETLQNR
Consider B1, for which the binding result is “binds”.
